From patent US20120121579A1, “TREATMENT OF ONCOSTATIN M RECEPTOR BETA MEDIATED HEART FAILURE” (MAX-PLANCK-GESELLSCHAFT ZUR FORDERUNG DER WISSENSCHAFTEN …, priority 2009, published 2012)
Entries after “also recorded” stand apart in the source; their conditions may differ.

How the values were obtained:
cardiomyocytes [1] = test: Cytokine-induced FGP / dedifferentiation markers in cultured adult cardiomyocytes (Western blot); assay type: cell-based, rat; conditions: 20 ng/ml of cytokines, 10d of serum-free culture
Procedure: (§1) MCP-1 transgenic animals, intraperitoneally injection of oncostatin M and culture of adult cardiomyocytes. The generation of transgenic mice (from FVB/N mice) with cardiac restricted overexpression of monocyte chemotactic protein-1 has been previously described (Kolattukudy et al. 1998). 6 months old FVB mice were injected intraperitoneally twice daily with a volume of 0.2 ml of phosphate buffered saline containing 5% fetal calf serum without (CON) or with 60 ng oncostatin M (OSM) per gram of animal for fourteen days. Ventricular cardiac myocytes of 6-mo-old rats were isolated as previously described (Kubin et al. 1999). Myocytes were plated at a density of 1.5×10^4 cells/cm^2 on laminin-coated (10 μg/ml; Sigma) chamber slides or 6 well dishes (Nunc) in basic medium. Myocytes were allowed to recover for 2 days in 2% fetal calf serum (FCS). Thereafter, basic medium, FCS, 50 ng/ml insulin-like growth factor-1 or 20 ng/ml of cytokines were added as indicated. Media were replaced every other day. UO126 (Cell Signaling Technology) was added 1 h prior to stimulation. All experiments were performed in duplicate and constantly treated with 10 μM 1-(β-D-arabinofuranosyl)cytosine to prevent nonmyocyte growth. Determination of secreted ANP by Western Blot was performed after ultrafiltration (Millipore).
(§2) Preparation of Protein Extracts and Western Blot Analysis. Tissue Samples were Sonicated in Lysis buffer (0.1M Tris-HCl, 10% sodium dodecylsulfate (SDS), 10 mM ethylenediamine tetraacetic acid, 40 mM dithiothreitol (DTT); pH 8.0) containing inhibitors as previously described (Vogel et al. 2006). Cultures were washed twice with PBS and harvested by scraping in lysis buffer. After heating for 1 minute at 99° C. debris was removed by centrifugation for 2 min at 14000 g. Twenty micrograms of protein extracts were separated on 4%-12% SDS-PAGE gradient gels and processed as previously described (Vogel et al. 2006). Immunoreactive proteins were visualized on the VersaDoc (BioRad) and analyzed using the QuantityOne software (BioRad).

[2] = test system: OSM treated cardiomyocytes; test: Inhibition of OSM-induced FGP in cultured cardiomyocytes (Western blot of 95 kDa B-Raf, α-SM actin, destrin, secreted ANP); assay type: cell-based, rat; conditions: after 10 days of OSM
Procedure: as §1, with “Determination of secreted ANP by Western Blot was performed after ultrafiltration (Millipore).” left out
(§3) Preparation of Protein Extracts and Western Blot Analysis. […] Immunoreactive proteins were visualized on the VersaDoc (BioRad) and analyzed using the QuantityOne software (BioRad).

cardiomyocytes [3] = test: Morphology of cultured adult cardiomyocytes: lengthening, sarcomeres, α-SM actin, cell growth (phase contrast, immunostaining); assay type: cell-based, rat; conditions: for inhibition of OSM-induced cell lengthening: OSM-stimulated cardiomyocytes, serum-free
Procedure: as §1
(§4) Phase-contrast micrographs, immunocytochemistry and fluorescence microscopy. Phase-contrast micrographs were taken with a 20× lens. For immunocytochemistry and fluorescence microscopy samples were processed as previously described (Kubin et al. 1999).

Erk1/2 = test: OSM-induced Erk1/2 activation in cultured cardiomyocytes (Western blot); assay type: cell-based, rat; conditions: after 10 minutes of OSM
Procedure: as §1, with “Determination of secreted ANP by Western Blot was performed after ultrafiltration (Millipore).” left out
as §3

gp130/Raf/Erk axis = test: Intraperitoneal oncostatin M treatment of mice, Western blot and immunostaining of cardiac tissue; assay type: in vivo, mouse
Procedure: as §1, §2, §4

[4] = 60 ng OSM per gram i.p. twice daily for fourteen days

For “MCP-1: monocyte chemotactic protein-1, recombinant mouse protein”, the “induction of FGP / dedifferentiation (re-expression of the 95 kDa B-Raf, α-SM actin and destrin)” value (shortened to “induction of FGP / dedifferentiation”) (cardiomyocytes [1]) was “neither TNF-α nor MCP-1 induced FGP”.

TNF-α was tested, and the “induction of FGP / dedifferentiation” value (cardiomyocytes [1]) was “neither TNF-α nor MCP-1 induced FGP”.

In the case of `N#CC(=C(/N)Sc1ccccc1N)/C(C#N)=C(/N)Sc1ccccc1N` [UO126], the “inhibition of OSM-induced re-expression of α-SM actin, the 95 kDa B-Raf and destrin (FGP)” value [2] is reported as “complete inhibition of the reexpression; also recorded: loss of re-expression of α-SM actin, the 95 kDa B-Raf and destrin; also recorded: abolishment of cell lengthening, the reexpression of ANP, α-SM actin and the 95 kDa B-Raf isoform”, the “secretion of ANP by OSM-treated cardiomyocytes” value [2] is reported as “loss of secreted atrial natriuretic peptide; also recorded: reduced secretion of ANP” and the “inhibition of OSM-induced cell lengthening” value (cardiomyocytes [3]; 8 days) is reported as “completely abolished OSM-induced lengthening; also recorded: abolishment of cell lengthening”. For the same molecule, the “inhibition of OSM-induced cell lengthening” value (cardiomyocytes [3]; 8 days, listed as UO) was “abolishes this effect” and the “inhibition of OSM-induced Erk1/2 activation (phosphorylation)” value (Erk1/2) was “abolished the activation of Erk1/2; also recorded: inhibition of Erk1/2 activation”.

B1: OSM: mouse oncostatin M, recombinant cytokine obtained from Sigma (protein)
chain: ANRGCSNSSSQLLSQLQNQANLTGNTESLLEPYIRLQNLNTPDLRAACTQHSVAFPSEDTLRQLSKPHFLSTVYTTLDRVLYQLDALRQKFLKTPAFPKLDSARHNILGIRNNVFCMARLLNHSLEIPEPTQTDSGASRSTTTPDVFNTKIGSCGFLWGYHRFMGSVGRVFREWDDGSTRSRR
In the case of B1, the “re-expression of α-SM actin (immunostaining)” value (cardiomyocytes [3]; 2% serum, 12 days) is reported as “massive re-expression of α-SM actin throughout the myocyte”, the loss of sarcomeres (cardiomyocytes [3]; 2% serum, 12 days, versus 2% serum treated controls) is reported as “massive loss of sarcomeres” and the “remodelling of cardiomyocytes (cell lengthening)” value (cardiomyocytes [3]; absence of serum, 8 days) is reported as “remodelling of cardiomyocytes primarily visible in cell lengthening”. For the same molecule, the “induction of FGP / dedifferentiation” value (cardiomyocytes [1]) was “induces more potently FGP than LIF”, the “P-Erk1/2 in cardiac tissue” value (gp130/Raf/Erk axis; [4]) was “Moderate increases” and the “amounts of B-Raf isoforms in cardiac tissue” value (gp130/Raf/Erk axis; [4]) was “increased amounts of all B-Raf isoforms”. The “level of LIF in cardiac tissue” value (gp130/Raf/Erk axis; [4]) was “did not change; also recorded: No changes”, the “level of α-SM actin, destrin and ANP in myocardial tissue” value (gp130/Raf/Erk axis; [4]) was “increased level” and the “phosphorylation level of the serine residue 782 of gp130” value (gp130/Raf/Erk axis; [4]) was “significant increases”. For the same molecule, the “amount of OSMRβ in cardiac tissue” value (gp130/Raf/Erk axis; 60 ng OSM per gram i.p. twice daily for fourteen days, 6 months old mice) was “significant increases” and the “heart failure phenotype after injection into mice” value (gp130/Raf/Erk axis; injection of OSM into mice) was “resulted into the heart failure phenotype of DCM”.

B2: cardiotrophin: recombinant mouse cytokine of the interleukin-6 class (protein, UniProt Q60753 1-203, looked up)
Cardiotrophin-1: MSQREGSLEDHQTDSSISFLPHLEAKIRQTHNLARLLTKYAEQLLEEYVQQQGEPFGLPGFSPPRLPLAGLSGPAPSHAGLPVSERLRQDAAALSVLPALLDAVRRRQAELNPRAPRLLRSLEDAARQVRALGAAVETVLAALGAAARGPGPEPVTVATLFTANSTAGIFSAKVLGFHVCGLYGEWVSRTEGDLGQLVPGGVA
B2 was tested, and the “induction of FGP / dedifferentiation” value (cardiomyocytes [1]) was “only a limited capacity to induce dedifferentiation”.

B3: 11-6: interleukin-6, recombinant mouse cytokine (protein, UniProt P08505 25-211, looked up)
Interleukin-6: FPTSQVRRGDFTEDTTPNRPVYTTSQVGGLITHVLWEIVEMRKELCNGNSDCMNNDDALAENNLKLPEIQRNDGCYQTGYNQEICLLKISSGLLEYHSYLEYMKNNLKDNKKDKARVLQRDTETLIHIFNQEVKDLHKIVLPTPISNALLTDKLESQKEWLRTKTIQFILKSLEEFLKVTLRSTRQT
For B3, the “induction of FGP / dedifferentiation” value (cardiomyocytes [1]) was “only a limited capacity to induce dedifferentiation”.
